Key:
[1] = molecular target: RTL binding sites on CD11b+ monocytes of DR*1501-Tg mice; experiment: flow cytometry; naive CD11b+ monocytes incubated with 1 µg RTL1000 FITC (1 hour at 37 °C by the text); upper row of panels
[2] = molecular target: CD74 (MHC class II invariant chain) of DR*1501-Tg mouse splenocytes and monocytes (mouse) (UniProt P04441)
[3] = molecular target: four-domain MHC class II from DR*1501-Tg mice (human transgene expressed in mouse); experiment: direct saturation binding of FITC-labeled construct to MHC class II immuno-adsorbed on Protein L/L243 beads; one-site fit
[4] = molecular target: RTL binding sites on CD11b+ monocytes of DR*1501-Tg mice; experiment: flow cytometry; blood of naive DR*1501-Tg mice 15 minutes after injection of 500 µg FITC-labeled RTL; monocyte gate, live cells; No RTL (pre-injection) panel 0.14%
[5] = molecular target: high affinity binding site for RTL on DR*1501-Tg mouse splenocytes; experiment: competition of unlabeled construct with labeled RTL1000 (280 nM) on DR*1501-Tg splenocytes; high affinity site
[6] = molecular target: RTL binding sites on CD11b+ monocytes of DR*1501-Tg mice; experiment: flow cytometry; naive CD11b+ monocytes incubated with 5 µg RTL1000 FITC (1 hour at 37 °C by the text); upper row of panels
[7] = molecular target: RTL binding sites on CD11b+ monocytes of DR*1501-Tg mice; experiment: flow cytometry; blood of naive DR*1501-Tg mice incubated in vitro with FITC-labeled RTL (legend: 500 µg), 90 minutes post-treatment; monocyte gate; No RTL (pre-treatment) panel 0.07%
[8] = molecular target: low affinity binding site for RTL on DR*1501-Tg mouse splenocytes; experiment: saturation binding to 2 million spleen cells on ice; urea lysis, SDS-PAGE, fluorescence densitometry; two-site fit
[9] = molecular target: high affinity binding site for RTL on DR*1501-Tg mouse splenocytes; experiment: as above
[10] = molecular target: low affinity binding site for RTL on MHC class II deficient mouse splenocytes; experiment: competition of unlabeled construct with labeled RTL1000 on MHC class II deficient mouse splenocytes; low affinity site
[11] = molecular target: RTL binding sites on CD11c+ cells of DR*1501-Tg mouse blood; experiment: flow cytometry; blood of naive DR*1501-Tg mice incubated in vitro with FITC-labeled RTL (legend: 500 µg), 90 minutes post-treatment; lymphocyte gate; No RTL (pre-treatment) panel 0.00%
[12] = molecular target: RTL binding sites on CD3+ cells of DR*1501-Tg mouse blood; experiment: as above
[13] = molecular target: RTL binding sites on CD19+ cells of DR*1501-Tg mouse blood; experiment: as above
[14] = molecular target: RTL binding sites on CD11c+ cells of DR*1501-Tg mouse blood; experiment: flow cytometry; blood of naive DR*1501-Tg mice 15 minutes after injection of 500 µg FITC-labeled RTL; lymphocyte gate, live cells; No RTL (pre-injection) panel 0.00%
[15] = molecular target: RTL binding sites on CD19+ cells of DR*1501-Tg mouse blood; experiment: as above
[16] = molecular target: RTL binding sites on CD11c+ cells of DR*1501-Tg mouse blood; experiment: flow cytometry; blood of naive DR*1501-Tg mice 15 minutes after injection of 500 µg FITC-labeled RTL; monocyte gate, live cells; No RTL (pre-injection) panel 0.12%
[17] = molecular target: RTL binding sites on CD3+ cells of DR*1501-Tg mouse blood; experiment: as above
[18] = molecular target: RTL binding sites on CD19+ cells of DR*1501-Tg mouse blood; experiment: as above
[19] = molecular target: RTL binding sites on CD11b+ monocytes of DR*1501-Tg mice; experiment: flow cytometry; blood of naive DR*1501-Tg mice 15 minutes after injection of 500 µg FITC-labeled RTL; LYMPHOCYTE gate, live cells; No RTL (pre-injection) panel 0.00%
Histone complex (Sigma) = experiment: SPR (Biacore 3000), histone complex amine coupled to CM5 chip, RTL1000 injected; 1:1 Langmuir model with drifting baseline
[20] = molecular target: RTL binding sites on CD3+ cells of DR*1501-Tg mouse blood; experiment: flow cytometry; blood of naive DR*1501-Tg mice 15 minutes after injection of 500 µg FITC-labeled RTL; lymphocyte gate, live cells; No RTL (pre-injection) panel 0.05%
[21] = molecular target: RTL binding sites on CD11b+ monocytes of DR*1501-Tg mice; experiment: flow cytometry; blood of naive DR*1501-Tg mice incubated in vitro with FITC-labeled RTL (legend: 500 µg), 90 minutes post-treatment; LYMPHOCYTE gate; No RTL (pre-treatment) panel 0.00%
[22] = molecular target: RTL binding sites on CD11c+ cells of DR*1501-Tg mouse blood; experiment: flow cytometry; blood of naive DR*1501-Tg mice incubated in vitro with FITC-labeled RTL (legend: 500 µg), 90 minutes post-treatment; monocyte gate; No RTL (pre-treatment) panel 0.09%
[23] = molecular target: low affinity binding site for RTL on MHC class II deficient mouse splenocytes; experiment: competition on whole cells of MHC class II knockout mice: labeled RTL1000 against increasing unlabeled RTL1000; SDS-PAGE fluorescence densitometry
[24] = molecular target: RTL binding sites on CD3+ cells of DR*1501-Tg mouse blood; experiment: flow cytometry; blood of naive DR*1501-Tg mice incubated in vitro with FITC-labeled RTL (legend: 500 µg), 90 minutes post-treatment; monocyte gate; No RTL (pre-treatment) panel 0.00%
[25] = molecular target: RTL binding sites on CD19+ cells of DR*1501-Tg mouse blood; experiment: as above
[26] = molecular target: low affinity binding site for RTL on DR*1501-Tg mouse splenocytes; experiment: competition of unlabeled construct with labeled RTL1000 (280 nM) on DR*1501-Tg splenocytes; low affinity site
[27] = molecular target: low affinity binding site for RTL on MHC class II deficient mouse splenocytes; experiment: competition on whole cells of MHC class II knockout mice: labeled RTL1000 against increasing unlabeled RTL340; SDS-PAGE fluorescence densitometry
[28] = system: mMOG-35-55-induced EAE in DR*1501-Tg mice
[29] = molecular target: T1, CD74 (MHC class II invariant chain) of DR*1501-Tg mouse splenocytes and monocytes (mouse, UniProt P04441-2 1-215, limits assumed, surface biotinylated in the immunoprecipitation experiments); experiment: direct saturation binding of FITC-labeled construct to CD74 immuno-adsorbed on Protein L/ln-1 beads; SDS-PAGE densitometry; one-site fit
T1 construct: Native protein from mouse cells; also called p31
T1 sequence (looked up): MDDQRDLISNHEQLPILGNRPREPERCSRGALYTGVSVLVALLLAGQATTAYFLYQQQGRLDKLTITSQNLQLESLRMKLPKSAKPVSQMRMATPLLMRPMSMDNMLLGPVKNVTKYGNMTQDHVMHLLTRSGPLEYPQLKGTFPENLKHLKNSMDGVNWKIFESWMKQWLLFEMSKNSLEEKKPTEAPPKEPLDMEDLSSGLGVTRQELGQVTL

[30] = molecular target: T1, CD74 (MHC class II invariant chain) of …; experiment: competition of unlabeled DR-α1 with FITC-labeled RTL1000 (320 nM) for immunoprecipitated CD74; gel densitometry; one-site competition fit
[31] = free peptide 10 μg i.v. daily for 5 days from onset

Work on RTL1000 (pDR2/hMOG-35-55) (peptide-MHC) yielded a % of cells in the upper right quadrant (CD11b APC+, RTL1000 FITC+) [1] of 55.8%, a CD74 expression on naive CD11b+ monocytes after 1 µg RTL1000: % of cells in the upper right quadrant (CD11b APC+, CD74 PE+) [2] of 42% and a CD74 expression on naive CD11b+ monocytes after 5 µg RTL1000: % of cells in the upper right quadrant (CD11b APC+, CD74 PE+) [2] of 9.84%. It also gave a CD74 expression on naive CD11b+ monocytes after 10 µg RTL1000: % of cells in the upper right quadrant (CD11b APC+, CD74 PE+) [2] of 7.32%, a Kd [3] of 1.14 nM and a % of cells in the upper right quadrant (CD11b PE+, RTL FITC+) [4] of 44.4%. For the same molecule, the EC50 [5] was 4000 nM, the % of cells in the upper right quadrant (CD11b APC+, RTL1000 FITC+) [6] was 69.5% and the % of cells in the upper right quadrant (CD11b PE+, RTL FITC+) [7] was 38.6%. It also gave a Kd [8] of 131 nM, a Kd [9] of 2.65 nM and an EC50 [10] of 71.1 nM. The % of cells in the upper right quadrant (CD11c APC+, RTL FITC+) [11] was 4.4%, the % of cells in the upper right quadrant (CD3 PE+, RTL FITC+) [12] was 1.49% and the % of cells in the upper right quadrant (CD19 APC+, RTL FITC+) [13] was 1.26%. For the same molecule, the % of cells in the upper right quadrant (CD11c APC+, RTL FITC+) [14] was 4.63%, the % of cells in the upper right quadrant (CD19 APC+, RTL FITC+) [15] was 0.82% and the % of cells in the upper right quadrant (CD11c APC+, RTL FITC+) [16] was 9.26%. The % of cells in the upper right quadrant (CD3 PE+, RTL FITC+) [17] was 0.36%, the % of cells in the upper right quadrant (CD19 APC+, RTL FITC+) [18] was 3.93% and the % of cells in the upper right quadrant (CD11b PE+, RTL FITC+) [19] was 9.23%. The Kd (Histone complex (Sigma)) was 575 nM, the % of cells in the upper right quadrant (CD3 PE+, RTL FITC+) [20] was 0.16% and the % of cells in the upper right quadrant (CD11b PE+, RTL FITC+) [21] was 3.96%. For the same molecule, the % of cells in the upper right quadrant (CD11c APC+, RTL FITC+) [22] was 6.77%, the IC50 (read off the curve) [23] was 40 nM and the % of cells in the upper right quadrant (CD3 PE+, RTL FITC+) [24] was 4.01%. The % of cells in the upper right quadrant (CD19 APC+, RTL FITC+) [25] was 5.82% and the EC50 [26] was 11 nM.

In the case of RTL340 (pDR2/MBP-85-99) (peptide-MHC), the EC50 [10] is reported as 43.2 nM, the IC50 (read off the curve) [27] is reported as 60 nM and the EC50 [26] is reported as 140 nM.

“mMOG-35-55 peptide: free mouse MOG-35-55 peptide, MEVGWYRSPFSRVVHLYRNGK (SEQ ID NO: 50) (Synthetic peptide - mouse MOG 35-55) [reference compound]” was tested, and the CDI [28, 31] was 31.5 ± 9.8, the Incidence [28, 31] was 5/5 and the Mortality [28, 31] was 0. For the same molecule, the Onset [28, 31] was 11.2 ± 1.2, the Peak [28, 31] was 3.0 ± 0.9 and the “effect on EAE (in words)” value ([28]; mMOG-35-55-induced EAE) was “did not produce significant inhibition of EAE”.

B1: DR-α1 domain alone (no DR2-β1 domain or peptide) (other, UniProt P01903 26-109, looked up)
chain: IKEEHVIIQAEFYLNPDQSGEFMFDFDGDEIFHVDMAKKETVWRLEEFGRFASFEAQGALANIAVDKANLEIMTKRSNYTPITN
modifications: labeled with FITC in the direct binding assays
notes: domain: α1
Work on B1 yielded a Kd [29] of 2.95 nM and an EC50 [30] of 447 nM.

Source: patent US20150044245A1, “PARTIAL MHC CONSTRUCTS AND METHODS OF USE” (Oregon Health & Science University, priority 2012, published 2015)
